From paper PMC7349057 come the findings set out here.

Data set [1] in a line: cell surface biotinylation, VEGFR2 western blot, hEMCN knockdown HRECs. The note with it: glycan lost; control: ∆21-121 EMCN. (Immunoblotting shows a protein as a band on a membrane.)
Data set [2] in a line: immunocytochemistry of internalised VEGFR2, BSA vs VEGF. The note with it: glycan lost; control: ∆21-121 EMCN.

B1: mouse EMCN (mEMCN, endomucin): N-Mut (protein)
parent chain: MRLLQATVLFFLLSNSLCHSEDGKDVQNDSIPTPAETSTTKASVTIPGIVSVTNPNKPADGTPPEGTTKSDVSQTSLVTTINSLTTPKHEVGTTTEGPLRNESSTMKITVPNTPTSNANSTLPGSQNKTENQSSIRTTEISVTTQLLDALPKITATSSASLTTAHTMSLLQDTEDRKIATTPSTTPSYSSIILPVVIALVVITLLVFTLVGLYRICWKRDPGTPENGNDQPQSDKESVKLLTVKTISHESGEHSAQGKTKN
In the case of B1, in data set [1], the “other: rescue of VEGF-induced VEGFR2 internalisation” value is “abolishes”. Further, the “other: rescue of VEGF-induced VEGFR2 internalisation, other: VEGFR2-positive pixels per cell” value in data set [2] was “abolishes”.
